Laboratory results as given in patent publication US20240092841A1.

Tests used:
[1] = biological target: Adhesion G protein-coupled receptor L2 (human) (UniProt O95490); test: co-IP with agarose-bound AvFc from A549 whole-cell lysate, mass spectrometry
Attractin (human) = Attractin (human) (UniProt O75882); test: as above
CD109 antigen (human) = CD109 antigen (human) (UniProt Q6YHK3); test: as above
[2] = biological target: Disintegrin and metalloproteinase domain-containing protein 17 (human) (UniProt P78536); test: as above
[3] = biological target: Disintegrin and metalloproteinase domain-containing protein 9 (human) (UniProt Q13443); test: as above
[4] = biological target: Endothelial protein C receptor (human) (UniProt Q9UNN8); test: as above
Erlin-1 (human) = Erlin-1 (human) (UniProt O75477); test: as above
[5] = biological target: Importin subunit beta-1 (human) (UniProt Q14974); test: as above
Integrin alpha-2 (human) [6] = biological target: Integrin alpha-2 (human) (UniProt P17301); test: as above
Integrin alpha-3 (human) = Integrin alpha-3 (human) (UniProt P26006); test: as above
Integrin alpha-5 (human) [7] = biological target: Integrin alpha-5 (human) (UniProt P08648); test: as above
Chain of UniProt P08648 (P08648 42-1049 limits assumed): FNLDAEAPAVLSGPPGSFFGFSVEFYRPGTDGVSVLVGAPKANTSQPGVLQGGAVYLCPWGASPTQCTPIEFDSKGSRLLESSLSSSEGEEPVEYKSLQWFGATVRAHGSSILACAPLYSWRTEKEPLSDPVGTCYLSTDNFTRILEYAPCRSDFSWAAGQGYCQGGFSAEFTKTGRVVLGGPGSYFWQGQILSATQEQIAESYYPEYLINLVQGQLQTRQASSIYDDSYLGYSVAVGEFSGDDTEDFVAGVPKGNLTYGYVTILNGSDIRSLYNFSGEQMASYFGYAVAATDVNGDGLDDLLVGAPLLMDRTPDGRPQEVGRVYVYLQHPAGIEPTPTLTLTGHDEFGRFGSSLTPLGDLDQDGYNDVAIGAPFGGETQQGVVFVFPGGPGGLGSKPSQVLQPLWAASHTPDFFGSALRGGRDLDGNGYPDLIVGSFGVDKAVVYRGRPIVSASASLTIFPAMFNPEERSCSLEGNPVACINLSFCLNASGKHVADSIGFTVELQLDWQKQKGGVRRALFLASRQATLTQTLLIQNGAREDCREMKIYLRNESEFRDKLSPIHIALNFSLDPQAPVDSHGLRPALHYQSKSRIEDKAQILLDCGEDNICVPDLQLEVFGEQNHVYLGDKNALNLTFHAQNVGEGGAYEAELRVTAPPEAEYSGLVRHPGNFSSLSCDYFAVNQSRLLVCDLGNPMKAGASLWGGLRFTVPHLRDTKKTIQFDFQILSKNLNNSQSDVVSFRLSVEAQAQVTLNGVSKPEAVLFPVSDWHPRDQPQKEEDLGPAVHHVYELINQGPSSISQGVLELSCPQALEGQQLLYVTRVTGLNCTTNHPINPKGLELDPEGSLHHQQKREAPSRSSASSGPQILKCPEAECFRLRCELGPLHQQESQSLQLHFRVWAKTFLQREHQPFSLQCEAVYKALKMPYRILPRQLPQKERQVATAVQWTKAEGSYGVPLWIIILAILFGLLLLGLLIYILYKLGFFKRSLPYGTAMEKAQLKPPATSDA

Integrin alpha-V (human) [8] = biological target: Integrin alpha-V (human) (UniProt P06756); test: as above
[9] = biological target: Isoform 6 of Myoferlin (human) (UniProt Q9NZM1); test: as above
[10] = biological target: Laminin subunit alpha-5 (human) (UniProt O15230); test: as above
Chain of UniProt O15230 (O15230 36-3695 limits assumed): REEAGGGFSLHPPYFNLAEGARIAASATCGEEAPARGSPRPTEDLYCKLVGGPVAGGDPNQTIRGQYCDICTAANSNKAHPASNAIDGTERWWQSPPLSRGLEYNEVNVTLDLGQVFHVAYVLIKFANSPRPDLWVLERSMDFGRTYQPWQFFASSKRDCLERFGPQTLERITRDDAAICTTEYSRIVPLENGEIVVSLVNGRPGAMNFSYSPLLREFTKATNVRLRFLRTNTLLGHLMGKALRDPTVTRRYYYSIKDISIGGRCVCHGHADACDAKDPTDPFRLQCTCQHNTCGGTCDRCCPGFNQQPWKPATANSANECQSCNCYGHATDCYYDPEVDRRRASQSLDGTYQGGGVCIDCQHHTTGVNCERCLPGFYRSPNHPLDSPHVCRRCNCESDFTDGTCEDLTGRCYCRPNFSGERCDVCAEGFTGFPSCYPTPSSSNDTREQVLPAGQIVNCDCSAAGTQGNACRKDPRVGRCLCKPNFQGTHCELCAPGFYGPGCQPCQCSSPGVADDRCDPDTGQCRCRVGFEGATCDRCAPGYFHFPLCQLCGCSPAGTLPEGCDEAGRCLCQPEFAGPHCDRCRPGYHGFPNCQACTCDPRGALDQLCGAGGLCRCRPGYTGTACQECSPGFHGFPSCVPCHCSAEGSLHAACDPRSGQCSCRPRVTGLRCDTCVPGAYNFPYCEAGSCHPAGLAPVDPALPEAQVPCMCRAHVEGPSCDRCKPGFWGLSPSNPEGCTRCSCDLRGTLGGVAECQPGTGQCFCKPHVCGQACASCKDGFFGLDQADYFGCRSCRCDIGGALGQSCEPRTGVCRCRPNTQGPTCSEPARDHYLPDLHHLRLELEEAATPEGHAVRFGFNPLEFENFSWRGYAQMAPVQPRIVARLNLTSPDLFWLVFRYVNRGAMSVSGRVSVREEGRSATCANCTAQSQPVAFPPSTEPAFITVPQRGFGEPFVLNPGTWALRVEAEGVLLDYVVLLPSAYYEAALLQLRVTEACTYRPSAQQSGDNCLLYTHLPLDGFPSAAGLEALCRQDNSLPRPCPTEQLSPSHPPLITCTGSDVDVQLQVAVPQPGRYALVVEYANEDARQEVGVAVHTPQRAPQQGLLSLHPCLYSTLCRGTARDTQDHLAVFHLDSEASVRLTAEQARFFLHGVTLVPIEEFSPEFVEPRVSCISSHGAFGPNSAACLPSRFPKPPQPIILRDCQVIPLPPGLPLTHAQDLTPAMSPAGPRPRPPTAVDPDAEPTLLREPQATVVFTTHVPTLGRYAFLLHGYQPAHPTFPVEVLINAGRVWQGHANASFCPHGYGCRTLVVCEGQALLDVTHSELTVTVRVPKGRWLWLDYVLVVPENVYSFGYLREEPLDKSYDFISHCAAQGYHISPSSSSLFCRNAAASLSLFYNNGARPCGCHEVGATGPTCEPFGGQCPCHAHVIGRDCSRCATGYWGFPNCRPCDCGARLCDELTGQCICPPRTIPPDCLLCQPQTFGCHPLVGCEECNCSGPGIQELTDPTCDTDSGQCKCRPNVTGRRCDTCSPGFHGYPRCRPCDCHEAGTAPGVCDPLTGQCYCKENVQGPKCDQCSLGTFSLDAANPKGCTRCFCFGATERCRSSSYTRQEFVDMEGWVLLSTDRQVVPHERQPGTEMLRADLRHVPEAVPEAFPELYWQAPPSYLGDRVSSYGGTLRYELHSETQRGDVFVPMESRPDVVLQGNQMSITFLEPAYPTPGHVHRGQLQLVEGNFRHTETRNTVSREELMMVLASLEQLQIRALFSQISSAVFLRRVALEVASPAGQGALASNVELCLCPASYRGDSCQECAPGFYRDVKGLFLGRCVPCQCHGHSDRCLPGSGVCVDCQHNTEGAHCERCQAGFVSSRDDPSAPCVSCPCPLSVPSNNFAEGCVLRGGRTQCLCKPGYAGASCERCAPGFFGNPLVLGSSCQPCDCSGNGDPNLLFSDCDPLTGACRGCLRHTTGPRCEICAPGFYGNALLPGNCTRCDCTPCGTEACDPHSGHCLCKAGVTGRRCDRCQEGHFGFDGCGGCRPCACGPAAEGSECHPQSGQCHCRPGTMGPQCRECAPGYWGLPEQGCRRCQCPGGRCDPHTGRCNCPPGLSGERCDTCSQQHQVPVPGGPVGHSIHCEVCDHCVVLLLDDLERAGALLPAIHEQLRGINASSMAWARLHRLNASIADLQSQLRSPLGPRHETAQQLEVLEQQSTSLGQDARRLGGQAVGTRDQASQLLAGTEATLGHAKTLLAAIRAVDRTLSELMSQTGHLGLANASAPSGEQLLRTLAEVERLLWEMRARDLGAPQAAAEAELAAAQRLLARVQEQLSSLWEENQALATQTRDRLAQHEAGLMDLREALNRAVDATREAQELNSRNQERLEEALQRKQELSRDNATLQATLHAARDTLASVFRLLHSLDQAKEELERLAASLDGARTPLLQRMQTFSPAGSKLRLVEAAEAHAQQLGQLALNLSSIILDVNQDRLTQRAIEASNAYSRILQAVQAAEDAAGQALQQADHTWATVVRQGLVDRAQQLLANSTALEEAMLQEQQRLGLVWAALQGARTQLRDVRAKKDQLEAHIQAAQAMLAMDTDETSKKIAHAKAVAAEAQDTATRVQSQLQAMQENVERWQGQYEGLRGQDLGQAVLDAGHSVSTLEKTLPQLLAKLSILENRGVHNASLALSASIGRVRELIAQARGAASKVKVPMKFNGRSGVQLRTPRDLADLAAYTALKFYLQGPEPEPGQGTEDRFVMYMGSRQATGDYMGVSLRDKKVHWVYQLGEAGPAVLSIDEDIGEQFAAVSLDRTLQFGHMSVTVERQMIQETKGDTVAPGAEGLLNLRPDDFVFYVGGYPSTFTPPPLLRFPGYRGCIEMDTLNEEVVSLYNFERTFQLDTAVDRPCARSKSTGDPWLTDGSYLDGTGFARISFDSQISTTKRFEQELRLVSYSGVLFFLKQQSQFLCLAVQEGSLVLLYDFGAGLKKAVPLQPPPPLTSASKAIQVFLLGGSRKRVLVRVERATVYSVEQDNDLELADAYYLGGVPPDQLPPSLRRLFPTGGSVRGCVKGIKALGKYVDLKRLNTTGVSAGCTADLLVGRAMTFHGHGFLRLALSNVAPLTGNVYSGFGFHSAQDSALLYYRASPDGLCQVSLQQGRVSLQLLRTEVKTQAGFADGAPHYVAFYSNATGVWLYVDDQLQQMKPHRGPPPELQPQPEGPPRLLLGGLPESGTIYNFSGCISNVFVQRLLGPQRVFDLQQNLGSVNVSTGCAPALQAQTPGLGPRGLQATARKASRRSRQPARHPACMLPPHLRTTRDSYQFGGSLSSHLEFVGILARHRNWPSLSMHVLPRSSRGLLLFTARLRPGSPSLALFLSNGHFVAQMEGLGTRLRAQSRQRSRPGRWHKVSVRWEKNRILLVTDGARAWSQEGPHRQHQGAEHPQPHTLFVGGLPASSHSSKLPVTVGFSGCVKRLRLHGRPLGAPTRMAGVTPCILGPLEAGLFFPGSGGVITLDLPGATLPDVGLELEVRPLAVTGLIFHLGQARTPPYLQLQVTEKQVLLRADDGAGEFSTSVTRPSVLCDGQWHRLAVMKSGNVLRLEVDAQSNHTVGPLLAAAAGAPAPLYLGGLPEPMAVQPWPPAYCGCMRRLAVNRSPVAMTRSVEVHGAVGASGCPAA

[11] = biological target: Laminin subunit beta-1 (human) (UniProt P07942); test: as above
[12] = biological target: Multidrug resistance-associated protein 1 (human) (UniProt P33527); test: as above
Polycystin-2 (human) = Polycystin-2 (human) (UniProt Q13563); test: as above
[13] = biological target: Scavenger receptor class B member 1 (human) (UniProt Q8WTV0); test: as above
[14] = biological target: Sodium/potassium-transporting ATPase subunit beta-1 (human) (UniProt P05026); test: as above
[15] = biological target: Solute carrier family 12 member 7 (human) (UniProt Q9Y666); test: as above
[16] = biological target: Solute carrier family 2, facilitated glucose transporter member 1 (human) (UniProt P11166); test: as above
[17] = biological target: Spectrin beta chain, non-erythrocytic 1 (human) (UniProt Q01082); test: as above
[18] = biological target: Tetratricopeptide repeat protein 13 (human) (UniProt Q8NBP0); test: as above
[19] = biological target: Transferrin receptor protein 1 (human) (UniProt P02786); test: as above
[20] = biological target: Transmembrane and TPR repeat-containing protein 3 (human) (UniProt Q6ZXV5); test: as above
[21] = biological target: Tropomyosin alpha-3 chain (human) (UniProt P06753); test: as above
Fibronectin (human) = Fibronectin (human) (UniProt P02751); test: co-IP with agarose-bound AvFc from H460 whole-cell lysate, mass spectrometry
[22] = biological target: Galectin-3-binding protein (human) (UniProt Q08380); test: as above
Integrin alpha-1 (human) = Integrin alpha-1 (human) (UniProt P56199); test: as above
Integrin alpha-2 (human) [23] = biological target: Integrin alpha-2 (human) (UniProt P17301); test: as above
Integrin alpha-5 (human) [24] = biological target: Integrin alpha-5 (human) (UniProt P08648); test: as above
Integrin alpha-V (human) [25] = biological target: Integrin alpha-V (human) (UniProt P06756); test: as above
[26] = biological target: Laminin subunit alpha-5 (human) (UniProt O15230); test: as above
[27] = biological target: Myoferlin (Q9NZM1-2) (human) (UniProt Q9NZM1); test: as above
[28] = biological target: Niemann-Pick C1 protein (human) (UniProt O15118); test: as above
Plexin-B2 (human) = Plexin-B2 (human) (UniProt O15031); test: as above
[29] = biological target: Scavenger receptor class A member 5 (human) (UniProt Q6ZMJ2); test: as above
[30] = biological target: Secretory carrier-associated membrane protein 3 (human) (UniProt O14828); test: as above
Chain of UniProt O14828 (O14828 whole entry): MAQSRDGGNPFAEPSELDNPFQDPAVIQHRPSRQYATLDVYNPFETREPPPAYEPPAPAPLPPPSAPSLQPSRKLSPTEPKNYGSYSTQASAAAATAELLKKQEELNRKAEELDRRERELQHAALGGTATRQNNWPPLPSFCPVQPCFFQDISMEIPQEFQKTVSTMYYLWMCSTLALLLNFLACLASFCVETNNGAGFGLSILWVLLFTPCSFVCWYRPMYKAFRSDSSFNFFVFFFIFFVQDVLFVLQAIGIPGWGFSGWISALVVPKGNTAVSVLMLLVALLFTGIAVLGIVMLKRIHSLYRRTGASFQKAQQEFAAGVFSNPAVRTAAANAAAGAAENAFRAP

## Avaren-Fc (AvFc) (Fc fusion)
[1]
  Percentage of Total Spectra (%): 0.091%
Attractin (human)
  Percentage of Total Spectra (%): 0.084%
CD109 antigen (human)
  Percentage of Total Spectra (%): 0.13%
[2]
  Percentage of Total Spectra (%): 0.056%
[3]
  Percentage of Total Spectra (%): 0.11%
[4]
  Percentage of Total Spectra (%): 0.014%
Erlin-1 (human)
  Percentage of Total Spectra (%): 0.11%
[5]
  Percentage of Total Spectra (%): 0.056%
Integrin alpha-2 (human) [6]
  Percentage of Total Spectra (%): 0.11%
Integrin alpha-3 (human)
  Percentage of Total Spectra (%): 0.15%
Integrin alpha-5 (human) [7]
  Percentage of Total Spectra (%): 0.035%
Integrin alpha-V (human) [8]
  Percentage of Total Spectra (%): 0.15%
[9]
  Percentage of Total Spectra (%): 0.17%
[10]
  Percentage of Total Spectra (%): 0.34%
[11]
  Percentage of Total Spectra (%): 0.41%
[12]
  Percentage of Total Spectra (%): 0.07%
Polycystin-2 (human)
  Percentage of Total Spectra (%): 0.17%
[13]
  Percentage of Total Spectra (%): 0.056%
[14]
  Percentage of Total Spectra (%): 0.056%
[15]
  Percentage of Total Spectra (%): 0.021%
[16]
  Percentage of Total Spectra (%): 0.007%
[17]
  Percentage of Total Spectra (%): 0.11%
[18]
  Percentage of Total Spectra (%): 0.13%
[19]
  Percentage of Total Spectra (%): 0.16%
[20]
  Percentage of Total Spectra (%): 0.11%
[21]
  Percentage of Total Spectra (%): 0.07%
Fibronectin (human)
  Percentage of Total Spectra (%): 0.21%
[22]
  Percentage of Total Spectra (%): 0.17%
Integrin alpha-1 (human)
  Percentage of Total Spectra (%): 0.13%
Integrin alpha-2 (human) [23]
  Percentage of Total Spectra (%): 0.0083%
Integrin alpha-5 (human) [24]
  Percentage of Total Spectra (%): 0.041%
Integrin alpha-V (human) [25]
  Percentage of Total Spectra (%): 0.13%
[26]
  Percentage of Total Spectra (%): 0.23%
[27]
  Percentage of Total Spectra (%): 0.11%
[28]
  Percentage of Total Spectra (%): 0.066%
Plexin-B2 (human)
  Percentage of Total Spectra (%): 0.13%
[29]
  Percentage of Total Spectra (%): 0.099%
[30]
  Percentage of Total Spectra (%): 0.083%
